Read-outs that look alike come from different tables or passages of the source.

As usually defined, the Kd is the concentration at which binding is half-saturated.

Test [1] deals with GP88 cell surface receptors on CCL64 cells. Nature of the test: ^125I-GP88 binding to CCL64 cells, Scatchard analysis. The settings on record: 2 hours at 25° C. Set-up: species or system mink. The procedure: Recombinant GP88 (rGP88) was iodinated by the chloramine T method at 4° C. Other known methods can also be applied. Briefly, 1 μg of GP88 was incubated for 2 min with ^125I Na (100 μCi) that had been preincubated for 90 seconds with 2 μg chloramine T. The reaction was quenched with the addition of 100 μl saturated tyrosine, 10 μl of a 1% solution of bovine serum albumin (BSA) and 2 μg of sodium metabisulfite. After addition of 100 μl PBS, the iodinated protein was separated from free Na^125I by gel filtration on a Sephadex-G50 column that had been preincubated with PBS containing 1% bovine serum albumin and then extensively washed with PBS to reduce non-specific binding. The labeled proteins were eluted with PBS and fractions monitored for radioactivity. Amount of incorporated radioactivity was estimated by TCA precipitation. Specific activity of ^125I-GP88 was typically 30-50 μCi/μg. […]
The example provided here describes binding assay with the mink lung epithelial cell line CCL64 but has also been applied to several cell lines including the 1246, PC cell lines and the mammary epithelial cell line C57MG. […] The cells were harvested by centrifugation, washed with culture medium and counted with a hemocytometer. […] Cell pellets were counted with a gamma counter. […]

Test [2] deals with mouse mammary epithelial cell line C57MG. Nature of the test: DNA synthesis (^3H-thymidine incorporation) in serum-starved C57MG cells. The format is cell-based. Here is the method:
We investigated the effect of GP88 on the proliferation of a variety of cell lines including fibroblasts and mammary epithelial cells.
The ability of GP88 purified from PC cells (upper panel) and recombinant GP88, rGP88 (lower panel), to stimulate DNA synthesis in C57MG cells was measured by incorporation of ^3H-thymidine in serum-starved quiescent cells.
A general note: Dividing cells build labelled thymidine or BrdU into new DNA.

B1: rGP88: recombinant mouse GP88 expressed in baculovirus infected Sf9 insect cells; iodinated as binding ligand (protein)
chain: TQCPDGQFCPVACCLDQGGANYSCCNPLLDTWPRITSHHLDGSCQTHGHCPAGYSCLLTVSGTSSCCPFSKGVSCGDGYHCCPQGFHCSADGKSCFQMSDNPLGAVQCPGSQFECPDSATCCIMVDGSWGCCPMPQASCCEDRVHCCPHGASCDLVHTRCVSPTGTHTLLKKFPAQKTNSAVSLPFSVVCPDAKTQCPDDSTCCELPTGKYGCCPMPNAICCSDHLHCCPQDTVCDLIQSKCLSKNYTTDLLTKLPGYPVKEVKCDMEVSCPEGYTCCRLNTGAWGCCPFAKAVCCDDHIHCCPAGFQCHTEKGTCEMGILQVGWMKKVIAPLRLPDPQILKSDTPCDDFTRCPTNNTCCKLNSGDWGCCPIPEAVCCSDNQHCCPQGFTCLAQGYCQKGDTMVAGLEKIPARQTTPLQIGDIGCDQHTSCPVGQTCCPSLKGSWACCQLPHAVCCEDRQHCCPAGYTCNVKARTCEKDVDFIQPPVLLTLGPKVGNVECGEGHFCHDNQTCCKDSAGVWACCPYLKGVCCRDGRHCCPGGFHCSARGTKCLRKKIPRWDMFLRDPVPRPLL
For the molecule B1, the Kd in test [1] (read-out: Kd, high affinity class of receptors) amounted to 0.043 nM; in test [1] (read-out: Kd, low affinity class of receptors), 3.9 nM. In test [2] (150 ng/ml (2 nM)), the “increase in DNA synthesis” value worked out at 5 fold. The “biological activity compared with PC cell derived GP88” value in test [2] (FIG. 6) is reported as “identical to that of GP88 purified from PC cells”.
